Test results from patent US10864269B2, “Therapeutic combinations comprising anti-CD73 antibodies and uses thereof” (MedImmune Limited, priority 2014, dated 2020).
Residue numbers refer to the chain shown, from its start.

B1: CD730002 2C5: IgG1 with CD730002-derived VL of SEQ ID NO: 88 and VH of SEQ ID NO: 87 (antibody, V domains shown)
VH: EVQLLESGGGLVQPGGSLRLSCAASGFTFSSYAMSWVRQAPGKGLEWVSAISGSGGSTYYADSVKRRFTISRDNSKNTLYLQMNSLRAEDTAVYYCARDKGYYWYMDVWGQGTMVTVSS
VL: QSVLTQPPSVSVSPGQTASITCSGDKVGDKYASWYQQKPGQSPVLVIYEDTKRLSGIPERFSGSNSGNTATLTISGTQAMDEADYYCQAWDTSFWVFGGGTKLTVL
B2: C2: combinatorial library clone of CD730010 GL9; VL SEQ ID NO: 61, VH SEQ ID NO: 75 (antibody, V domains shown)
VH: EVQLLESGGGLVQPGGSLRLSCAASGFTFSSYAYSWVRQAPGKGLEWVSLIWGSWGSTYYADSVKGRFTISRDNSKNTLYLQMNSLRAEDTAVYYCARLGYSTIDMWGRGTLVTVSS
VL: QSVLTQPPSASGTPGQRVTISCSGSLSNIGRNPVNWYQQLPGTAPKLLIYLDNLRLGGVPDRFSGSKSGTSASLAISGLQSEDEADYYCATWDDSLKGWLFGGGTKLTVL
B3: D3: combinatorial library clone of CD730010 GL9; VL SEQ ID NO: 62, VH SEQ ID NO: 76 (antibody, V domains shown)
VH: B2 VH with L50A, W52S, W55G, S57R, M106L
VL: B2 VL with G57S, K97I
B4: G10: combinatorial library clone of CD730010 GL9; VL SEQ ID NO: 63, VH SEQ ID NO: 77 (antibody, V domains shown)
VH: B2 VH with L50A, W52S, S57R, M106L
VL: B2 VL with P33D, D52N, L54Q

What was measured:
[1] = target: T1, murine CD73 (Mus musculus, UniProt Q61503); experiment: Solution binding, murine CD73; conditions: as measured by solution binding
T1 sequence (Q61503 29-551): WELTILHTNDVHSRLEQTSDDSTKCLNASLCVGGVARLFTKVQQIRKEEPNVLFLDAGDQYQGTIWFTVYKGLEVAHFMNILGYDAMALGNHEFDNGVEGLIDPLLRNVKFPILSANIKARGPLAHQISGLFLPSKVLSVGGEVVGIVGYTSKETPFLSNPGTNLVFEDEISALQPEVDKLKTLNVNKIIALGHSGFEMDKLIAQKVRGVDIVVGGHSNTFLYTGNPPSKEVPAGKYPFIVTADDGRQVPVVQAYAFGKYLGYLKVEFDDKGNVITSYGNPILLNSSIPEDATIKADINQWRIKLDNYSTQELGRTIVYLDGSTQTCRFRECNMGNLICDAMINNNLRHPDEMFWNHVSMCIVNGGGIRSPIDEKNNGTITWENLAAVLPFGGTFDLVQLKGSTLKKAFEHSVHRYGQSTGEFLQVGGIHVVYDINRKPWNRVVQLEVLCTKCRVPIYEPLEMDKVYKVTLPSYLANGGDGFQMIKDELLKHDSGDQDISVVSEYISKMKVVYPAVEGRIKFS

[2] = target: T2, huCD73 (Homo sapiens, UniProt P21589); experiment: Solution binding, human CD73; conditions: as measured by solution binding
T2 sequence (P21589 27-549): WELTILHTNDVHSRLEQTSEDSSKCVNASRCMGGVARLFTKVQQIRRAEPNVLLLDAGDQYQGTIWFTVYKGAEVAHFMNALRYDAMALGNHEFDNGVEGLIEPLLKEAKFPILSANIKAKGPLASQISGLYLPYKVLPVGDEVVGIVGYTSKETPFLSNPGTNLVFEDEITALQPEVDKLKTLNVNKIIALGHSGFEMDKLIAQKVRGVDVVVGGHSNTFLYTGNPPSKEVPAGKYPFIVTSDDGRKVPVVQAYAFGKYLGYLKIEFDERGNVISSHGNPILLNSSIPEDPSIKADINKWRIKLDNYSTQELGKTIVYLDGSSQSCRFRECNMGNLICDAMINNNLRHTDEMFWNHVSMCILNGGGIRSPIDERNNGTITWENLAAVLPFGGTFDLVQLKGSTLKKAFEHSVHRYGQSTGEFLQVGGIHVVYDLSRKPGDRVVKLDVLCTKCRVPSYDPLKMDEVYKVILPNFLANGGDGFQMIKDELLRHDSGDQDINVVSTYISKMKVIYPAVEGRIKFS

[3] = target: T3, native CD73, MDA-MB-231 cells (Homo sapiens, UniProt P21589); experiment: Flow cytometry binding to native CD73, MDA-MB-231 cells; conditions: as measured by flow cytometry; read-out: KD, CD73 on the surface of MB-MDA-231 cells
T3 construct: native CD73 expressed on human, murine, and cynomolgus monkey cell lines; endogenous in cells; host or cells: MDA-MB-231
T3 sequence (P21589 27-549): T2 sequence (P21589 27-549)
Description: (§1) Binding of MEDI9447 to native CD73 expressed on human, murine, and cynomolgus monkey cell lines was characterized by flow cytometry. The cells were incubated with various concentrations of MEDI9447 and antibody binding was monitored with and fluorophore-labeled anti-human Fc antibody. A plot of the median fluorescence intensity as a function of the MEDI9447 concentration was fitted nonlinearly using a one-site binding isotherm model to calculate the equilibrium dissociation constant.
(§2) The affinity of enhanced anti-CD73 antibodies (in IgG1-TM format) to human, murine, and cynomolgus CD73 was determined by flow cytometry and surface plasmon resonsance (SPR) (Table 13). The enhanced antibodies had pM affinity to cellular and recombinant CD73 from the three species.
(§3) All flow cytometry experiments were run at 4C and reagents were prepared in PBS/1% FBS buffer. 10,000 cells were incubated with test antibody in 50 uL volume for 4 hours. Cells were washed twice and incubated in 50 uL goat anti-human IgGFc-AlexaFluor647 conjugate for 15 minutes. Cells were washed, resuspended in buffer supplemented with Dapi, and analyzed on a flow cytometer. […] For the determination of KD values, a plot of the median fluorescence intensity as a function of test antibody concentration was fitted nonlinearly using a one site binding isotherm model.

[4] = target: cynomolgus CD73; experiment: Solution binding, cynomolgus CD73; conditions: as measured by solution binding
[5] = test system: native CD73, MK-1 cells; experiment: Flow cytometry binding to native CD73, MK-1 cells; conditions: as measured by flow cytometry; read-out: KD, CD73 on the surface of cynomolgus MK-1 cells
Description: as §1, §2, §3

[6] = target: T2, huCD73; experiment: ELISA binding of Fab variants to human CD73; conditions: combinatorial Fab library clones, capture ELISA and direct ELISA
Description: (§4) CD730010GL9 IgG1-TM was enhanced by screening Fab libraries comprising variant CDR sequences with single amino acid mutations. Each of the 61 positions in the six CDRs was individually randomized to 19 amino acids (all natural amino acids except Cysteine), generating a library with a theoretical diversity of 1159 unique clones (19 amino acids per position times 61 positions). Bacterial Fab fragments were produced from 4224 clones of the library and screened for binding to human and murine CD73 protein by capture ELISA (Assay 2). 180 clones with increased binding signal compared to parental CD730010 GL9 IgG1-TM were selected and the mutations in the VH or VL domain were identified by DNA sequencing. The Fab concentration in the bacterial supernatants was normalized and the binding of the normalized supernatants to human and murine CD73 protein was evaluated by direct ELISA (Assay 1). Table 11 lists selected beneficial single amino acid substitutions and their effect on binding to recombinant CD73 protein.
(§5) To further improve the affinity of the anti-CD73 antibody, several single amino acid changes which improved binding when compared to parental CD730010 GL9 were combined to create a combinatorial Fab library (Assay 4). Fab fragments of 4224 clones of the combinatorial library were produced in E. coli and screened for binding to human and murine CD73 protein by capture ELISA. […]
(§6) 384-well ELISA plates were coated with about 1.5 ng/well recombinant CD73 protein, blocked with 1% BSA/0.1% Tween20/PBS and incubating with antibody samples for 90 minutes at room temperature. […] HRP activity was detected with tetra methyl benzidine (TMB) substrate and the reaction was stopped with 1 M HCl. Plates were read at 450 nm.
(§7) 384-well ELISA plates were coated with about 3 ng/well sheep-anti-human Fd antibody (for screening antibodies in Fab format), blocked with 1% BSA/0.1% Tween20/PBS and incubating with samples for 90 minutes at room temperature. […] HRP activity was detected with tetra methyl benzidine (TMB) substrate and the reaction was stopped with 1 M HCl. Plates were read at 450 nm.

[7] = target: T4, muCD73 (Mus musculus, UniProt Q61503); experiment: ELISA binding of Fab variants to murine CD73; conditions: combinatorial Fab library clones, capture ELISA and direct ELISA
T4 sequence (Q61503 29-551): T1 sequence (Q61503 29-551)
Description: as §4, §5, §6, §7

Molecule	Kd [1] [nM]	Kd [2] [nM]	Kd [3] [nM]	Kd [4] [nM]	Kd [5] [nM]	binding to human CD73 [6]	binding to murine CD73 [7]
B1	~1.5	~0.08	~0.08	~0.1	~0.06	–	–
B2	–	–	–	–	–	strong binding	strong binding
B3	–	–	–	–	–	strong binding	strong binding
B4	–	–	–	–	–	strong binding	strong binding
